# B1: Barstar wild type, P11540 (protein)
# chain: MKKAVINGEQIRSISDLHQTLKKELALPEYYGENLDALWDCLTGWVEYPLVLEWRQFEQSKQLTENGAESVLQVFREAKAEGCDITIILS
# B2: Ribonuclease wild type, P00648 (protein)
# chain: MMKMEGIALKKRLSWISVCLLVLVSAAGMLFSTAAKTETSSHKAHTEAQVINTFDGVADYLQTYHKLPDNYITKSEAQALGWVASKGNLADVAPGKSIGGDIFSNREGKLPGKSGRTWREADINYTSGFRNSDRILYSSDWLIYKTTDHYQTFTKIR
# B3: Ribonuclease wild type, P00649 (protein)
# chain: MKKISSVFTMFALIAAILFSGFIPQQAYAETPLTQTATNETATIQLTSDVHTLAVINTFDGVADYLIRYKRLPDNYITKSQASALGWVASKGNLAEVAPGKSIGGDVFSNREGRLPSASGRTWREADINYVSGFRNADRLVYSSDWLIYKTTDHYATFTRIR
# Conditions: Bacillus amyloliquefaciens; pH 6.2; Thermal; DSC; Na-acetate 10 mM; NaCl 0.05 M; reversible: yes; whole UniProt chain shown
Protein,Tm [°C],unfolding enthalpy (calorimetric) [kcal/mol],unfolding enthalpy (van 't Hoff) [kcal/mol]
B1,73.3,53,76
B2,54.5,129,130

# Same assay, conditions: Bacillus intermedius; pH 6.2; Thermal; DSC; Na-acetate 10 mM; NaCl 0.05 M; reversible: yes; whole UniProt chain shown
Protein,Tm [°C],unfolding enthalpy (calorimetric) [kcal/mol],unfolding enthalpy (van 't Hoff) [kcal/mol]
B3,56.5,124,126

# From FireProtDB (doi:10.1016/s0014-5793(99)00158-1)
